Drawing on patent publication US20240262926A1 (published 2024), this text covers Kd, koff and kon for eleven molecules.

In test [1] the target is T1, recombinant monkey TfR (r monkey TfR: Sino Biological Inc.) (cynomolgus monkey (Macaca fascicularis), UniProt Q5RDH6 89-760 (Pongo abelii entry)).
T1 construct: Bought product; also called r monkey TfR-ECD (Histag); cynomolgus monkey TfR; not shown: histidine tag attached to the N-terminus
T1 chain: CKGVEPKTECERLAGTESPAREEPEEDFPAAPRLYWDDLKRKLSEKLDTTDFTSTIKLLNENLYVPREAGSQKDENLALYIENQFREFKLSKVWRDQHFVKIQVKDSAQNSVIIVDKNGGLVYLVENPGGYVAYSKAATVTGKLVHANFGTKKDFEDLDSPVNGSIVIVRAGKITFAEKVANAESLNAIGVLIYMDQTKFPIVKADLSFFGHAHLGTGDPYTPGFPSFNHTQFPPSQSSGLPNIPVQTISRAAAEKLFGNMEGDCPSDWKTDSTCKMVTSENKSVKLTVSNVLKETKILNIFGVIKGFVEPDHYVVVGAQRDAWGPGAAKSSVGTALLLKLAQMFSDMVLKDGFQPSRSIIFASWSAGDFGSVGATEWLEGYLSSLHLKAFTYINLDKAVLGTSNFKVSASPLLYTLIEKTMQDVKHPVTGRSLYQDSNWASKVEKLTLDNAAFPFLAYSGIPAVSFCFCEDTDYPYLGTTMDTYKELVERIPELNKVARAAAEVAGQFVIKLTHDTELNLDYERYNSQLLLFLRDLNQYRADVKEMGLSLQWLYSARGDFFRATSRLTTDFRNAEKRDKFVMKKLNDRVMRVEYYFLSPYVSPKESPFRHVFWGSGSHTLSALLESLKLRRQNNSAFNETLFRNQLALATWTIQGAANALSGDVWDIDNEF
Nature of the test: BLI (Octet RED96), His-tagged TfR ECD loaded on Ni-NTA sensor, antibody as analyte. On the procedure:
(§1) By measuring the variations of this shift between the interfering waves, determination of the number of the molecules bound to the layer of the biomolecules immobilized to the sensor tip surface and kinetic analysis of it can be performed in real time. The measurement was performed according generally to the operating manual attached to Octet RED96. As a human TfR, a recombinant human TfR (r human TfR: Sino Biological Inc.) was used, which had the amino acid sequence of the hTfR extracellular region, i.e., the cysteine residue at the position 89th from the N-terminal side to the phenylalanine at the C-terminus, of the amino acid sequence set forth as SEQ ID NO:1, with a histidine tag attached to the N-terminus. As a monkey TfR, a recombinant monkey TfR (r monkey TfR: Sino Biological Inc.) was used, which had the amino acid sequence of the cynomolgus monkey TfR extracellular region, i.e., the cysteine residue at the position 89th from the N-terminal side to the phenylalanine at the C-terminus, of the amino acid sequence set forth as SEQ ID NO:2, with a histidine tag attached to the N-terminus.
(§2) Each of the antibodies (anti-hTfR antibody Nos. 1 to 14) purified above was subjected to 2-fold dilution steps with HBS-P+(10 mM HEPES containing 150 mM NaCl, 50 μM EDTA and 0.05% Surfactant P20) to prepare antibody solutions of 7 different concentrations, 0.78125 to 50 nM (0.117 to 7.5 μg/mL). These antibody solutions were used as the sample solutions. The r human and r monkey TfRs were respectively diluted with HBS-P+ to prepare 25 μg/mL solutions, which were used as r human TfR-ECD (Histag) solution and r monkey TfR-ECD (Histag) solution, respectively.
(§3) Each of the sample solutions prepared above by 2-fold dilution steps was added, 200 μL/well, to a 96-well plate, black (Greiner Bio-One Inc.). Each of the r human TfR-ECD (Histag) solution and the r monkey TfR-ECD (Histag) solutions prepared above was added, 200 μL/well, to predetermined wells. To respective wells for baseline, dissociation and washing were added HBS-P+, 200 μL/well. To wells for regeneration were added 10 mM Glycine-HCl, pH 1.7, 200 μL/well. To wells for activation was added 0.5 mM NiCl₂ solution, 200 μL/well. The plate and biosensor (Biosensor/Ni-NTA: ForteBio Inc., a division of Pall Corporation) were set in the prescribed positions of Octet RED96.
(Biolayer interferometry detects binding as a change in optical thickness at a sensor tip.)

The target of test [2] is T2, recombinant human TfR (r human TfR: Sino Biological Inc.) (human, UniProt P02786 89-760).
T2 construct: Bought product; also called r human TfR-ECD (Histag); hTfR; not shown: histidine tag attached to the N-terminus
The description is as above. Here is the method:
as §1, §2, §3

Broadly, the Kd is the equilibrium constant for the complex coming apart. One may read the koff as a measure of how fast the partners let go of each other. By kon is commonly meant the second-order rate constant of association.

B1: anti-hTfR antibody No. 1 (antibody, V domains shown)
VH: EVQLQESGGGLVQPGGSLKLSCAASGLTFSNYGMSWIRQTPDKRLELVANINTNGGSTYYPDSVKGRFTISRDNAKNTLYLQMNSLKSEDTAIYYCTNNRYDEDYWGQGTSVTVSS
VL: DIVLTQSSKFMSTSVGDRVSITCKASQDVNSAVAWFQQKPGQSPKLLIYWTSTRHTGVPDRFTGSGSGTVYTLTISSVQAEDLALYYCQQHYSTPRTFGGGTKLEIKR
notes: Mouse hybridoma antibody purified on Protein G; also called mouse anti-hTfR antibody No. 1; product of Clone 1 line
Regarding B1, in test [1], the Kd was under 0.001 nM, the koff is under 1e-07 s⁻¹ and the kon was found to be 280000 M⁻¹ s⁻¹. Also, in test [2], the Kd worked out at 0.00509 nM, the koff amounted to 2.55e-06 s⁻¹ and the kon was 500000 M⁻¹ s⁻¹.

B2: anti-hTfR antibody No. 4 (antibody, V domains shown)
VH: EVQLQESGAELVRPGTSVRVFCKASGYAFTNYLIEWVKQRPGQGLEWIGLINPGSGGIIYNEKFTDRATLTADKSSSTAYMQLSSLTSDDSAVYFCARSNYYGTTYWHFDVWGAGTTVTVSS
VL: DIVLTQTPAIMSASPGEKVTMTCSASSNVNYMHWYQQKSSTSPKLWIYDTSKLASGVPGRFSGSGSGNSYSLTISSMEAEDVATYYCFQGNGNPYTFGGGTKLEIK
notes: Mouse hybridoma antibody purified on Protein G; also called mouse anti-hTfR antibody No. 4; product of Clone 4 line
Consider B2, for which, in test [1], the Kd is 0.161 nM, the dissociation rate constant (koff) was 0.000121 s⁻¹ and the kon turned out to be 754000 M⁻¹ s⁻¹. In test [2], the Kd was 0.12 nM, the koff turned out to be 0.000229 s⁻¹ and the kon is 1.91e+06 M⁻¹ s⁻¹.

B3: anti-hTfR antibody No. 7 (antibody, V domains shown)
VH: EVQLQESGGALVKPGGSLKVSCEASGITFRNYFMSWVRQTPEKRLEWVATISSAGGYTYYADSVKGRFTISRDNAGNTLYLQMSSLRSEDTAMYFCARQEVPYPYAMDYWGQGTSVIVSS
VL: DIVLTQSPVIMSASLGEEITLTCSASSSVNYIHWYQQKSGTSPKVLIYQTSNLASGVPSRFSGSRSGTFYSLKISSVEAEDAADYYCHQWSSYPWTFGGGTKLEIK
notes: Mouse hybridoma antibody purified on Protein G; also called mouse anti-hTfR antibody No. 7; product of Clone 7 line
B3: in test [1], the equilibrium dissociation constant (Kd) is 0.0171 nM, the koff stood at 4.54e-06 s⁻¹ and the kon amounted to 266000 M⁻¹ s⁻¹. In addition, in test [2], the Kd was found to be 0.0822 nM, the koff worked out at 3.03e-05 s⁻¹ and the on-rate constant (kon) was 369000 M⁻¹ s⁻¹.

B4: anti-hTfR antibody No. 8 (antibody, V domains shown)
VH: EVQLQESGPGLVAPSQSLSITCTVSGFSLTTYGVSWIRQPPGKGLEWLGIIWGDGSTNYRSALISRLSISKDNSKNQVFLKLNSLQTDDTATYYCAKPDDYWGQGTSVTVSS
VL: DIVLTQSPAIMSASLGEEITLTCSASSSVSYMHWYQQKSGTSPKVLIYGTSNLASEVPSRFSGSGSGTFYSLTISSVEAEDAADYYCHQWSSYPWTFGGGTKLEIK
notes: Mouse hybridoma antibody purified on Protein G; also called mouse anti-hTfR antibody No. 8; product of Clone 8 line
Turning to B4, in test [1], the Kd worked out at 9.18 nM, the koff turned out to be 0.00507 s⁻¹ and the kon is 552000 M⁻¹ s⁻¹. Also, in test [2], the dissociation constant (Kd) was under 0.001 nM, the koff is under 1e-07 s⁻¹ and the kon was found to be 696000 M⁻¹ s⁻¹.

B5: anti-hTfR antibody No. 5 (antibody, V domains shown)
VH: EVQLQESGPELVKPGASVKMSCKASGYTFTNFVIHWVKQRPGQGLEWIGFFNPHKNGAEYNEKFQVKATLTSDKSSTTAYMELNSLTSEDSAVYYCARSFYYYSMDYWGQGTSVTVSS
VL: DIVMTQTPAIMSASPGEKVTMTCSASSSISSIHWYQQKPGTSPKRWIYDTSTLASGVPVRFSGSGSGTSYSLTISSMEAEDAATYYCHQRSSYPTFGGGTKLEIK
notes: Mouse hybridoma antibody purified on Protein G; also called mouse anti-hTfR antibody No. 5; product of Clone 5 line
B5: in test [1], the Kd worked out at 1.46 nM, the koff worked out at 0.000758 s⁻¹ and the kon is 519000 M⁻¹ s⁻¹. For the same molecule, in test [2], the Kd is 0.0364 nM, the koff was determined as 2.44e-05 s⁻¹ and the kon turned out to be 671000 M⁻¹ s⁻¹.

B6: anti-hTfR antibody No. 9 (antibody, V domains shown)
VH: EVQLQESGPELKKPGETVKISCKASGYTFTNYGVSWVKQAPGKDLKWMGWIYTFTGEATYIDDFRGRFAFSLETSANTAYLQINNLKNEDTATYFCSRRNGAWFEDWGQGTLVTVSA
VL: DIVLTQSPALMSASPGETVTMTCSASSSVSLMFWYQQKPRSSPKPWIYFTSYRASGVPIRFSGSGSGTSFSLTISNLEAEDAATYYCQQWTSDPPTFGSGTKLEIE
notes: Mouse hybridoma antibody purified on Protein G; also called mouse anti-hTfR antibody No. 9; product of Clone 9 line
As for B6, in test [2], the equilibrium dissociation constant (Kd) was found to be 0.121 nM, the koff is 9.46e-05 s⁻¹ and the kon is 782000 M⁻¹ s⁻¹.

B7: anti-hTfR antibody No. 6 (antibody, V domains shown)
VH: EVQLQESGPGLVAPSQSLSITCSVSGFSLSTYGVYWVRQPPGKGLEWLGIIWGDGSTNYHSALISRLTISKDNSKSQVFLKLNSLQTADTATYYCAKPDDVWGAGTTVTVSS
VL: DIVLTQTPSSLSASLGERVSLTCRASQEISGYLSWLQQKPDGTIKRLIYAASTLDSGVPKRFSGSRSGSDYSLTISSLESEDFADYYCLQYSSYPRTFGGGTKLEIK
notes: Mouse hybridoma antibody purified on Protein G; also called mouse anti-hTfR antibody No. 6; product of Clone 6 line
Take B7: in test [1], the Kd was 0.123 nM, the koff was 0.000236 s⁻¹ and the on-rate constant (kon) came to 495000 M⁻¹ s⁻¹. Also, in test [2], the Kd is 0.958 nM, the koff is 0.000723 s⁻¹ and the kon came out at 754000 M⁻¹ s⁻¹.

B8: anti-hTfR antibody No. 10 (antibody, V domains shown)
VH: EVQLQESGGGLVKPGGSLKLSCEASGITFRNYAMSWVRQTPEKRLEWVATISSYGGYTYYADSVKGRFTVSRDNAGNTLYLQMSSLRSEDTAMYHCARQEVPYPYPMDNWGQGTSVIVSS
VL: DIVMTQTPSSLSASLGERVSLTCRPSQEISGYLSWLQQKPDGTIKRLIYAASTLDSGVPKRFSGSRSGSDYSLTISSLESEDFADYYCLQYASYPRTFGGGTKLEIK
notes: Mouse hybridoma antibody purified on Protein G; also called mouse anti-hTfR antibody No. 10; product of Clone 10 line
For the molecule B8, in test [1], the Kd is 31.6 nM, the koff came to 0.0122 s⁻¹ and the kon was 387000 M⁻¹ s⁻¹. In test [2], the Kd was found to be 1.13 nM, the koff came to 0.000766 s⁻¹ and the kon turned out to be 679000 M⁻¹ s⁻¹.

B9: anti-hTfR antibody No. 2 (antibody, V domains shown)
VH: EVQLQESGAELVRPGVSVKISCKGSGYTFTDYVMHWVRQSHAKSLEWIGVISTYYGHGSYNQRFKGKATMTVDKSSSTAYLELVRLTSEDSAIYYCVRGGYGSSSLAGNFDVWGAGTTVTVSS
VL: DIVLTQSPATLSVTPGDSVSLSCRASQSISNNLQWYQQKSHESPRLLIKYASQSISGIPSRFSGSGSGTDFTLSINSVETEDFGMYFCQQSNSWPRTFGAGTKLELKR
notes: Mouse hybridoma antibody purified on Protein G; also called mouse anti-hTfR antibody No. 2; product of Clone 2 line
For the molecule B9, in test [2], the equilibrium dissociation constant (Kd) worked out at 0.0112 nM, the koff worked out at 1.23e-05 s⁻¹ and the on-rate (kon) was 1.11e+06 M⁻¹ s⁻¹.

B10: anti-hTfR antibody No. 11 (antibody, V domains shown)
VH: EVQLQESGAELVRPGSSVKISCKASGYAFSIYWINWLKQRPGQGLEWIGQIYPGNGDTNYNGKFKGKATLTADKSSNTVYMRLSSLTSEDSAVYFCGRWGDDYAMDFWGQGTSVTVSS
VL: DIVLTQSPATLSVTPGDRVSLSCRASQSIRNYLHWYQQKSHESPRLLIKYASQSISGIPSRFSGSGSGTDFTLSINSVETEDFGMYFCQQTNSWPYTFGGGTKLEIK
notes: Mouse hybridoma antibody purified on Protein G; also called mouse anti-hTfR antibody No. 11; product of Clone 11 line
As to B10, in test [1], the Kd was found to be 3.38 nM, the koff was determined as 0.000421 s⁻¹ and the kon turned out to be 124000 M⁻¹ s⁻¹. Besides, in test [2], the Kd came out at 0.0837 nM, the koff came out at 2.28e-05 s⁻¹ and the kon is 272000 M⁻¹ s⁻¹.

B11: anti-hTfR antibody No. 13 (antibody, V domains shown)
VH: EVQLQESGAELVRPGSSVKISCKASGYAFSIYWINWLKQRPGQGLEWIGQIYPGNGDTNYNGKFKGKATLTADKSSNTVYMRLSSLTSEDSAVYFCGRWGDDYAMDFWGQGTSVTVSS
VL: DIVITQTPATLSVTPGDRVSLSCRASQSIRNYLHWYQQKSHESPRLLIKYASQSISGIPSRFSGSGSGTDFTLTINSVETEDFGMYFCQQTNSWPYTFGGGTKLEIK
notes: Mouse hybridoma antibody purified on Protein G; also called mouse anti-hTfR antibody No. 13; product of Clone 13 line
Consider B11, for which, in test [1], the Kd was determined as 0.123 nM, the koff turned out to be 7.29e-05 s⁻¹ and the kon worked out at 591000 M⁻¹ s⁻¹. In addition, in test [2], the dissociation constant Kd is under 0.001 nM, the dissociation rate constant (koff) was under 1e-07 s⁻¹ and the on-rate constant (kon) came out at 835000 M⁻¹ s⁻¹.
